US20170291930

How the values were obtained:
[1] = system: T1, Hst-5 synthetic peptide K13L
T1 sequence: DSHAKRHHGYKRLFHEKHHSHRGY

[2] = system: T2, Hst-5 synthetic peptide K17R
T2 sequence: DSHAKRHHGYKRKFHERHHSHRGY

[3] = system: T3, Hst-5 synthetic peptide K17L
T3 sequence: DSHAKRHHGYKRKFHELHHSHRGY

For “purified recombinant Sap9 (C. albicans secreted aspartic protease 9)”, which “cleavage site preference of Sap9 (mass spectrometry)” value [1] is on record?
The value was “K13L showed an apparent shift in cleavage site preference compared to the parent Hst-5. The fragments containing amino acids 1-12 and 13-24 had higher signals for K13L than the fragments containing amino acids 1-17 and 18-24”.

What about the “cleavage at the C-terminal side of residue 17 by Sap9 (mass spectrometry)” value [2] of the same substance?
Its value is “while the parent Hst-5 was cleaved on the C-terminal side of K17, neither K17R nor K17L showed significant cleavage at this site”.

What about the “cleavage at the C-terminal side of residue 17 by Sap9 (mass spectrometry)” value [3] of the same substance?
Its value is “while the parent Hst-5 was cleaved on the C-terminal side of K17, neither K17R nor K17L showed significant cleavage at this site”.
